Source: article PMC4941815 (Molecular cell, 2016)
Where two headings read alike, the source gives them in different places.

B2: full-length His-tagged CLK1 (enzyme)
chain: not shown
B3: kdSRPK1, kinase inactive SRPK1 containing K109M (enzyme, UniProt Q96SB4 1-655, looked up)
chain: MERKVLALQARKKRTKAKKDKAQRKSETQHRGSAPHSESDLPEQEEEILGSDDDEQEDPNDYCKGGYHLVKIGDLFNGRYHVIRKLGWGHFSTVWLSWDIQGKKFVAMMVVKSAEHYTETALDEIRLLKSVRNSDPNDPNREMVVQLLDDFKISGVNGTHICMVFEVLGHHLLKWIIKSNYQGLPLPCVKKIIQQVLQGLDYLHTKCRIIHTDIKPENILLSVNEQYIRRLAAEATEWQRSGAPPPSGSAVSTAPQPKPADKMSKNKKKKLKKKQKRQAELLEKRMQEIEEMEKESGPGQKRPNKQEESESPVERPLKENPPNKMTQEKLEESSTIGQDQTLMERDTEGGAAEINCNGVIEVINYTQNSNNETLRHKEDLHNANDCDVQNLNQESSFLSSQNGDSSTSQETDSCTPITSEVSDTMVCQSSSTVGQSFSEQHISQLQESIRAEIPCEDEQEQEHNGPLDNKGKSTAGNFLVNPLEPKNAEKLKVKIADLGNACWVHKHFTEDIQTRQYRSLEVLIGSGYNTPADIWSTACMAFELATGDYLFEPHSGEEYTRDEDHIALIIELLGKVPRKLIVAGKYSKEFFTKKGDLKHITKLKPWGLFEVLVEKYEWSQEEAAGFTDFLLPMLELIPEKRATAAECLRHPWLNS

Key:
His-tagged SRPK1 [1] = molecular target: T1, His-tagged SRPK1 (UniProt Q96SB4 1-655); assay: pull-down
His-tagged SRPK1 [2] = molecular target: T1, His-tagged SRPK1; assay: pull-down; remark: listed apart in the source
[3] = molecular target: B3; assay: displacement of 32P-phospho-GST-SRSF1 from His-CLK1 on Ni-resin
[4] = molecular target: B2; assay: as above

B1: GST-tagged form of the CLK1 N-terminus (domain or fragment, UniProt P49759 1-160, looked up)
chain: MRHSKRTYCPDWDDKDWDYGKWRSSSSHKRRKRSHSSAQENKRCKYNHSKMCDSHYLESRSINEKDYHSRRYIDEYRNDYTQGCEPGHRQRDHESRYQNHSSKSSGRSGRSSYKSKHRIHHSTSHRRSHGKSHRRKRTRSVEDDEEGHLICQSGDVLSAR
- binding result (His-tagged SRPK1 [1]): binds

Binder: B2
- binding result (His-tagged SRPK1 [2]): binds
- Kd [3]: 16 ± 6 nM

Binder: B3
- stoichiometry N [4]: 1
